According to US20150258192A1, “COMPOSITIONS AND METHODS FOR PREVENTING OR TREATING CHRONIC LUNG ALLOGRAFT DYSFUNCTION (CLAD) AND IDIOPATHIC PULMONARY FIBROSIS (IPF)” (priority 2014, published 2015):
No end group written: not given here.

How the values were obtained:
Test in all cases: Kinase Profiling Assay
Type in all cases: biochemical
Settings in all cases: peptide 100 μM
ULK3(h) = target: T1, ULK3(h) (Homo sapiens, UniProt Q6PHR2)
T1 sequence (Q6PHR2 1-472): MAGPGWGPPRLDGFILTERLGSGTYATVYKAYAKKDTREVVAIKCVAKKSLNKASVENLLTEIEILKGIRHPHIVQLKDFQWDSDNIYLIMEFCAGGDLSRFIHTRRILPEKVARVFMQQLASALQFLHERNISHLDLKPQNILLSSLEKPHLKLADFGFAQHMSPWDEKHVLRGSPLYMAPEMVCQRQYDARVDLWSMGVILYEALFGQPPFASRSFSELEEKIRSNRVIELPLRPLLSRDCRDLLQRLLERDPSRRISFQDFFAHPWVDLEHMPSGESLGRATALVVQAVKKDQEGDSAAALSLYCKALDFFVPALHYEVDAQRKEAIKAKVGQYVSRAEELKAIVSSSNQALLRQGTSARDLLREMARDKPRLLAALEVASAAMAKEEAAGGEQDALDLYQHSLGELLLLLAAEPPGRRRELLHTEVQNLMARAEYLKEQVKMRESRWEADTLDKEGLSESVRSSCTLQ
How it was run: (§1)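 Specificity of MK2 inhibitory peptides is assessed against a panel of 266 human kinases. Kinase transfers a radiolabeled phosphate from ATP onto a positively charged substrate, which is trapped on a negatively charged filter and quantified by scintillation counting against full-activity control; duplicate determinations.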

Rsk3(h) = target: T2, Rsk3(h) (Homo sapiens, UniProt Q15349)
T2 construct: purchased Millipore
T2 sequence (Q15349 whole entry): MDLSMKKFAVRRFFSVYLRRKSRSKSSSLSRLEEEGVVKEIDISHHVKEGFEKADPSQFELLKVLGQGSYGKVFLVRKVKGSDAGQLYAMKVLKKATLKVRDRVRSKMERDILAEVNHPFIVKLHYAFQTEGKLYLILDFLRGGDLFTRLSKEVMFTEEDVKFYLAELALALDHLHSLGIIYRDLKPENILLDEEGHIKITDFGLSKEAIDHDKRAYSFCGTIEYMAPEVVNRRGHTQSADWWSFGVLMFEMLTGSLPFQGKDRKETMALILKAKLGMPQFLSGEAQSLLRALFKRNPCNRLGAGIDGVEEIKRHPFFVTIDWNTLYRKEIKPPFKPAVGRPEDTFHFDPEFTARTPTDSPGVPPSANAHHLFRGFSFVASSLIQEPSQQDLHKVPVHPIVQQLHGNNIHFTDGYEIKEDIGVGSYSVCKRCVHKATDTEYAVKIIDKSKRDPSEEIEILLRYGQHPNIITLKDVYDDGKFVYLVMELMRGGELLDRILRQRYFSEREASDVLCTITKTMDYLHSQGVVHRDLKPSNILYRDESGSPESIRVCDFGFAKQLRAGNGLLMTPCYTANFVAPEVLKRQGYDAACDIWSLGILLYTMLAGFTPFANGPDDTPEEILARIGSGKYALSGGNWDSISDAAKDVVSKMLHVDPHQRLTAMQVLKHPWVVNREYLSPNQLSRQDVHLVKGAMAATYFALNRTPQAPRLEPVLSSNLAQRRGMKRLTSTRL
How it was run: as §1

EphA4(h) = EphA4(h) (Homo sapiens, UniProt P54764)
Chain of EphA4(h) (P54764 20-986): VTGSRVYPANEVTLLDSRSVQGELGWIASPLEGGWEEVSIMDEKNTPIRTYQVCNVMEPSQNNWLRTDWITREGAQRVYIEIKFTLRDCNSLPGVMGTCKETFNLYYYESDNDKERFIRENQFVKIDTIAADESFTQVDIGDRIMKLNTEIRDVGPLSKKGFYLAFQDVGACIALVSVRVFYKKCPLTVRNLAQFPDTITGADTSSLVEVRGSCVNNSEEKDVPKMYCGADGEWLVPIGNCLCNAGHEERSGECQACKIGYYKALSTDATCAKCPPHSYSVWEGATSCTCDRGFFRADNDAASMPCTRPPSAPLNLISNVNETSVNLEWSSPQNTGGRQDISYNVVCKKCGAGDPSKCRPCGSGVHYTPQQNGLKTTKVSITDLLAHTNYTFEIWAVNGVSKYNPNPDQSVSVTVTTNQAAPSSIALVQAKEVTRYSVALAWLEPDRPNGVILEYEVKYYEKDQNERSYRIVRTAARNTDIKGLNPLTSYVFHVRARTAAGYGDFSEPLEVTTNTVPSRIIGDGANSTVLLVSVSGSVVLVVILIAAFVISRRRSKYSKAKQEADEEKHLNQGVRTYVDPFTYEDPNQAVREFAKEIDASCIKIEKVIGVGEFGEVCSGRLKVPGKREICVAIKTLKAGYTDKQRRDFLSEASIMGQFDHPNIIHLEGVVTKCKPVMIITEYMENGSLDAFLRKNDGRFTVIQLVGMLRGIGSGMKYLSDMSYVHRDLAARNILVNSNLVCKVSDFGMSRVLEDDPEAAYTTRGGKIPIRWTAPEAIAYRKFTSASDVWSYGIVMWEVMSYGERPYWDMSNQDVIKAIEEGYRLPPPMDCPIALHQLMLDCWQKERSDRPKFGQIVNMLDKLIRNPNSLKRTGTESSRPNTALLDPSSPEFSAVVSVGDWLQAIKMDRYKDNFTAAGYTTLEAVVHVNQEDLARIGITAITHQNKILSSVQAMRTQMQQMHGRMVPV
How it was run: as §1

CLK3(h) = CLK3(h) (Homo sapiens, UniProt P49761)
Chain of CLK3(h) (P49761 whole entry): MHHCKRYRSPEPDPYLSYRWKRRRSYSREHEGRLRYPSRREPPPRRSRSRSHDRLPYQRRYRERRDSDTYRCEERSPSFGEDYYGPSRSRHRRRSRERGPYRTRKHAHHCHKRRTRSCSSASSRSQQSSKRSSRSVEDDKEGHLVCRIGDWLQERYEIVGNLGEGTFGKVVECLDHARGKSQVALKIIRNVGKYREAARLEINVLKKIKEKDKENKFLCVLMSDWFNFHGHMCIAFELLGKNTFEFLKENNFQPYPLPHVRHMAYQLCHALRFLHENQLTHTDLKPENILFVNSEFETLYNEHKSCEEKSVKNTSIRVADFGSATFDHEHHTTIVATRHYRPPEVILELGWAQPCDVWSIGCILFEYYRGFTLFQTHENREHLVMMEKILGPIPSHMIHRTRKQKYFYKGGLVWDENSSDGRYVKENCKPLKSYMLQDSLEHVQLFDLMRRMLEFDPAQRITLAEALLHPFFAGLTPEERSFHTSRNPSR
How it was run: as §1

MELK(h) = target: T3, MELK(h) (Homo sapiens, UniProt Q14680)
T3 construct: purchased Millipore
T3 sequence (Q14680 whole entry): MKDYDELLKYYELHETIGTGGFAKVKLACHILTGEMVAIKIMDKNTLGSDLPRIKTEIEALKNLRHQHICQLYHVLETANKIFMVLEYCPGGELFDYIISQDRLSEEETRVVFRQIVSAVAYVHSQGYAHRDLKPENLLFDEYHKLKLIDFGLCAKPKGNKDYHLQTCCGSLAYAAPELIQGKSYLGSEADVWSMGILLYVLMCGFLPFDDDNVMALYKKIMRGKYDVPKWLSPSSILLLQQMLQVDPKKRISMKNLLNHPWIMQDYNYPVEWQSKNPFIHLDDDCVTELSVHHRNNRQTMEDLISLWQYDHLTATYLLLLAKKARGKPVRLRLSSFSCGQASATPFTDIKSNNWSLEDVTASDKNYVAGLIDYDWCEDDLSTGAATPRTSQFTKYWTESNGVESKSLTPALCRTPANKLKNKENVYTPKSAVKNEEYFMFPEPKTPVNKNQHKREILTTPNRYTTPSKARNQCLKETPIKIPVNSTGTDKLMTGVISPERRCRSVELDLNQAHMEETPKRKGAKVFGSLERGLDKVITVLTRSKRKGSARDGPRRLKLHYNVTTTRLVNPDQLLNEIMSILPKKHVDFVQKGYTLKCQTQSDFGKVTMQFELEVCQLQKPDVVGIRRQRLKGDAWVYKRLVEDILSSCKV
How it was run: as §1

KDR(h) = target: T4, KDR(h) (Homo sapiens, UniProt P35968)
T4 construct: purchased Millipore
T4 sequence (P35968 20-1356): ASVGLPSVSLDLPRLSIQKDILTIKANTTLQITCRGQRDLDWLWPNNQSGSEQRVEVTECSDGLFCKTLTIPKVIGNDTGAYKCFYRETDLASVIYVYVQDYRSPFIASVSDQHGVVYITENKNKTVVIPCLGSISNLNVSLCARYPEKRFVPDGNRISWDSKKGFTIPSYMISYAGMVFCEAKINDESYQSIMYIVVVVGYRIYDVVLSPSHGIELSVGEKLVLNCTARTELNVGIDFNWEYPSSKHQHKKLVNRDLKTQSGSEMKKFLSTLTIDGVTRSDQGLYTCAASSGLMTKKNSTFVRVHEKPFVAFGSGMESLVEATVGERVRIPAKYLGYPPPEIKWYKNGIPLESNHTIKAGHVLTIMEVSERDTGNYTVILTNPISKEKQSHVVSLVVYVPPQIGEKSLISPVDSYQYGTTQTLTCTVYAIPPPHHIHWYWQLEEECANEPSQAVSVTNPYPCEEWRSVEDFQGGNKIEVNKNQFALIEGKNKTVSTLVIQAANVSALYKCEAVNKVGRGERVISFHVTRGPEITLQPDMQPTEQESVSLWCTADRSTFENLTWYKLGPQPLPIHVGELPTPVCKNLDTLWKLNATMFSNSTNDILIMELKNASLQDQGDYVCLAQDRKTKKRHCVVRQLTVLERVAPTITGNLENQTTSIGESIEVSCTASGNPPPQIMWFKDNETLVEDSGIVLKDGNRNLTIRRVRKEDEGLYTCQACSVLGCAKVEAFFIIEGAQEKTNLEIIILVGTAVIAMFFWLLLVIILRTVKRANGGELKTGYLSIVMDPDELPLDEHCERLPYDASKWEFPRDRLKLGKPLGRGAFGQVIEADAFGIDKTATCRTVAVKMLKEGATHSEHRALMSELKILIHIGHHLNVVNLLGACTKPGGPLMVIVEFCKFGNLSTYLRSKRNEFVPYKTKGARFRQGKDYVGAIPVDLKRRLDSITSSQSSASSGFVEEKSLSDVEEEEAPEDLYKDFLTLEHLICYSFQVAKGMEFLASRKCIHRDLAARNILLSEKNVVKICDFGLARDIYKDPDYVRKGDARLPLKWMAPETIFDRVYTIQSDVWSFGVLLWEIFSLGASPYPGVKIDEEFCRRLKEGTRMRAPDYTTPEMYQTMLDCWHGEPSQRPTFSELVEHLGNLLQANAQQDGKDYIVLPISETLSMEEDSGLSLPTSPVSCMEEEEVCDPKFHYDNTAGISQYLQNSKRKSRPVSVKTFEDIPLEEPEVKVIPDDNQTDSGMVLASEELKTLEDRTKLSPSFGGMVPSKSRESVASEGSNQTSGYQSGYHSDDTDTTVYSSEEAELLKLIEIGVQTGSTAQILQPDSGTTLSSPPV
How it was run: as §1

MST3(h) = target: T5, MST3(h) (Homo sapiens, UniProt Q9Y6E0)
T5 construct: purchased Millipore
How it was run: as §1

GCK(h) = target: T6, GCK(h) (Homo sapiens, UniProt Q12851)
T6 construct: purchased Millipore
T6 sequence (Q12851 1-820): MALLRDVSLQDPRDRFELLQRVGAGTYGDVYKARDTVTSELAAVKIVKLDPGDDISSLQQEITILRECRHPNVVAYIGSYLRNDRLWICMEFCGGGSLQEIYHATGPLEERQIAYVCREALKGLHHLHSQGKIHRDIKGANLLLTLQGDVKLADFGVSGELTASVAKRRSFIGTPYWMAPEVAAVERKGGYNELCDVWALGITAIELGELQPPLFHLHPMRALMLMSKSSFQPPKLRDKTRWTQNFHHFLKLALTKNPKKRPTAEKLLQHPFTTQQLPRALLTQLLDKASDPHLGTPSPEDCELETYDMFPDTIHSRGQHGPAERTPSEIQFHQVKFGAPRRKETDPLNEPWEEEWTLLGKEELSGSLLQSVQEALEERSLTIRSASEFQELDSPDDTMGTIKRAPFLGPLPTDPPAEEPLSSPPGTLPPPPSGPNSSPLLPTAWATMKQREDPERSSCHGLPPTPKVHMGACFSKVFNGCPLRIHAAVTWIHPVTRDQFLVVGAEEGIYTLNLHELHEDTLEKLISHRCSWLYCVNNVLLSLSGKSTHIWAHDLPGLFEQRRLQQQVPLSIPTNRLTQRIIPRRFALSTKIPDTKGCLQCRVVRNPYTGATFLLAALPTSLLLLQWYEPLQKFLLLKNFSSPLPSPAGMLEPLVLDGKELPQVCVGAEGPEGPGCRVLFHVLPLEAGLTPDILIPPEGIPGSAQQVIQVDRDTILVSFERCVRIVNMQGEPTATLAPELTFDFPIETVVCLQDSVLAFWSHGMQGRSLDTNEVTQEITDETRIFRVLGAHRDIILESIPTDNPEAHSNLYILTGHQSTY
How it was run: as §1

NEK3(h) = target: T7, NEK3(h) (Homo sapiens, UniProt P51956)
T7 construct: purchased Millipore
T7 sequence (P51956 1-506): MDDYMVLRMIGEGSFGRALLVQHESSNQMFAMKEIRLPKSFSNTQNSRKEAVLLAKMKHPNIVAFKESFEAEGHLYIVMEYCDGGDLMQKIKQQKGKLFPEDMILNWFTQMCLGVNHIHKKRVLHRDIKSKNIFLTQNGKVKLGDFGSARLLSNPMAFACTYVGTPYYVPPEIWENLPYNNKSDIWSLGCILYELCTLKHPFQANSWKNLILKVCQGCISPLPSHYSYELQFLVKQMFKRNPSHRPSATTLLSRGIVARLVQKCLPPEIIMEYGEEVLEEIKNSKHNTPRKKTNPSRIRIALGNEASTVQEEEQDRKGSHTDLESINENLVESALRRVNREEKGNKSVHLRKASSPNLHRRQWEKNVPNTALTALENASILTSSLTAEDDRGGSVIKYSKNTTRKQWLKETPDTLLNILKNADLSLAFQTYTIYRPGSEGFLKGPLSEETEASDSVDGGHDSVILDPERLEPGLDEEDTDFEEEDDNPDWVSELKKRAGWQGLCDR
How it was run: as §1

SIK(h) = target: T8, SIK(h) (Homo sapiens, UniProt P57059)
T8 construct: purchased Millipore
How it was run: as §1

Mnk2(h) = target: T9, Mnk2(h) (Homo sapiens, UniProt Q9HBH9)
T9 construct: purchased Millipore
How it was run: as §1

CDK7/cyclinH/MAT1(h) = CDK7/cyclinH/MAT1(h) (Homo sapiens, UniProt P50613)
How it was run: as §1

Lck(h) activated = target: T10, Lck(h) activated (Homo sapiens, UniProt P06239)
T10 construct: purchased Millipore
How it was run: as §1

cSRC(h) = cSRC(h) (Homo sapiens, UniProt P12931)
How it was run: as §1

CaMKIIβ(h) = CaMKIIβ(h) (Homo sapiens, UniProt Q13554)
Chain of CaMKIIβ(h) (Q13554 whole entry): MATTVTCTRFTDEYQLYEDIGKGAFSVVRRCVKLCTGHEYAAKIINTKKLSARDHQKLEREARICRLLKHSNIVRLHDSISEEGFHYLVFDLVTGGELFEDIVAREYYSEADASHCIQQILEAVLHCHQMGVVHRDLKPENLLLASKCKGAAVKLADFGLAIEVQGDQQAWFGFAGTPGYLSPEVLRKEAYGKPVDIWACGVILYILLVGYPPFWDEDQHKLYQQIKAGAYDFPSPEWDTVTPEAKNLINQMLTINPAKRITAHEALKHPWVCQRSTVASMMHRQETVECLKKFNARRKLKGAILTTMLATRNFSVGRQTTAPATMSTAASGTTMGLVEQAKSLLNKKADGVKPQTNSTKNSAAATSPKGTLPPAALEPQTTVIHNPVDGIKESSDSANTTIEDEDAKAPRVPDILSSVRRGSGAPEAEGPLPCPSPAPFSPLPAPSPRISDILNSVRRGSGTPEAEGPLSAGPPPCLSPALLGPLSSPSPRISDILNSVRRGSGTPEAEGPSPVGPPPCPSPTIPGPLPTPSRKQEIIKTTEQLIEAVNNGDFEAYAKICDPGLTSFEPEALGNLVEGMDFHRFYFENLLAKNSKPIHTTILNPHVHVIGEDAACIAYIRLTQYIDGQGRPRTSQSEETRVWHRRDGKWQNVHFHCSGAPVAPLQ
How it was run: as §1

Sequence | % activity (ULK3(h)) [%] | % activity (Rsk3(h)) [%] | % activity (EphA4(h)) [%] | % activity (CLK3(h)) [%] | % activity (MELK(h)) [%] | % activity (KDR(h)) [%] | % activity (MST3(h)) [%] | % activity (GCK(h)) [%] | % activity (NEK3(h)) [%] | % activity (SIK(h)) [%] | % activity (Mnk2(h)) [%] | % activity (CDK7/cyclinH/MAT1(h)) [%] | % activity (Lck(h) activated) [%] | % activity (cSRC(h)) [%] | % activity (CaMKIIβ(h)) [%]
FAKLAARLYRKALARQLGVAA [MMI-0300] | 167 | 76 | 88 | 61 | 16 | 101 | 45 | 70 | 92 | 66 | 89 | 65 | 243 | 26 | 2
HRRIKAWLKKIKALARQLGVAA (Mammal) [MMI-0500] | 177 | 23 | 48 | 76 | 0 | 15 | 4 | 30 | 20 | 40 | 6 | 15 | 76 | 30 | 3
KAFAKLAARLYRKALARQLGVAA [MMI-0400] | 147 | 71 | 65 | 84 | 17 | 94 | 36 | 66 | 85 | 68 | 86 | 47 | 216 | 14 | 11
YARAAARQARAKALARQLGVAA [MMI-0100] | 142 |  | 110 | 108 | 74 | 100 |  | 98 | 100 |  |  |  |  |  | 
YARAAARQARAKALNRQLGVA (Mammal) [MMI-0200] | 164 |  | 127 | 76 | 59 | 110 | 95 | 99 | 100 |  |  | 67 | 90 | 32 | 53
